# From IntAct's records for PubMed 21642957
# B1: Serine/threonine-protein kinase Nek9 (Homo sapiens), Q8TD19 (parent)
# chain: MSVLGEYERHCDSINSDFGSESGGCGDSSPGPSASQGPRAGGGAAEQEELHYIPIRVLGRGAFGEATLYRRTEDDSLVVWKEVDLTRLSEKERRDALNEIVILALLQHDNIIAYYNHFMDNTTLLIELEYCNGGNLYDKILRQKDKLFEEEMVVWYLFQIVSAVSCIHKAGILHRDIKTLNIFLTKANLIKLGDYGLAKKLNSEYSMAETLVGTPYYMSPELCQGVKYNFKSDIWAVGCVIFELLTLKRTFDATNPLNLCVKIVQGIRAMEVDSSQYSLELIQMVHSCLDQDPEQRPTADELLDRPLLRKRRREMEEKVTLLNAPTKRPRSSTVTEAPIAVVTSRTSEVYVWGGGKSTPQKLDVIKSGCSARQVCAGNTHFAVVTVEKELYTWVNMQGGTKLHGQLGHGDKASYRQPKHVEKLQGKAIRQVSCGDDFTVCVTDEGQLYAFGSDYYGCMGVDKVAGPEVLEPMQLNFFLSNPVEQVSCGDNHVVVLTRNKEVYSWGCGEYGRLGLDSEEDYYTPQKVDVPKALIIVAVQCGCDGTFLLTQSGKVLACGLNEFNKLGLNQCMSGIINHEAYHEVPYTTSFTLAKQLSFYKIRTIAPGKTHTAAIDERGRLLTFGCNKCGQLGVGNYKKRLGINLLGGPLGGKQVIRVSCGDEFTIAATDDNHIFAWGNGGNGRLAMTPTERPHGSDICTSWPRPIFGSLHHVPDLSCRGWHTILIVEKVLNSKTIRSNSSGLSIGTVFQSSSPGGGGGGGGGEEEDSQQESETPDPSGGFRGTMEADRGMEGLISPTEAMGNSNGASSSCPGWLRKELENAEFIPMPDSPSPLSAAFSESEKDTLPYEELQGLKVASEAPLEHKPQVEASSPRLNPAVTCAGKGTPLTPPACACSSLQVEVERLQGLVLKCLAEQQKLQQENLQIFTQLQKLNKKLEGGQQVGMHSKGTQTAKEEMEMDPKPDLDSDSWCLLGTDSCRPSL
# Variants of: B1
# Settings: with plk1_human PLK1, P53350
# plk1_human PLK1, P53350, sequence (P53350 whole entry): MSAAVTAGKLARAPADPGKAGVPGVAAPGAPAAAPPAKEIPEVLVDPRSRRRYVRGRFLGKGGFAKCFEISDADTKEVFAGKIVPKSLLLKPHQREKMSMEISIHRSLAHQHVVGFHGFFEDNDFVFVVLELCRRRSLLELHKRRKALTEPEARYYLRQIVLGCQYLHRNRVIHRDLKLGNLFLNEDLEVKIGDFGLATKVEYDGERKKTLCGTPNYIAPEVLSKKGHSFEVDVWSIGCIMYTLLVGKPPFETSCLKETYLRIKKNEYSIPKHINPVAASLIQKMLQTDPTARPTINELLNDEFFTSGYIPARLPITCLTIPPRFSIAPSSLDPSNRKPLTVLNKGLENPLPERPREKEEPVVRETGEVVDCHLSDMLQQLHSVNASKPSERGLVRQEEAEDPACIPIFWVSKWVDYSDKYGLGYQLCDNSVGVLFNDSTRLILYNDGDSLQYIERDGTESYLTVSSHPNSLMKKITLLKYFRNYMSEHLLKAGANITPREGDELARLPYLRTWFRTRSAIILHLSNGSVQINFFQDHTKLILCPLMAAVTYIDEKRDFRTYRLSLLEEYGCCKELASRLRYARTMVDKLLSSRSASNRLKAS
row,Variant,effect of a mutation on the interaction
1,S750A,decreasing interaction

# Variants of: B1
# Settings: with plk1_human PLK1, P53350
# Remark: another data set of the same source
row,Variant,effect of a mutation on the interaction
1,S869A,disrupting interaction
